This is an account of results in US20220000762A1, “COMPOSITIONS FOR TREATING OXIDATIVE STRESS-ASSOCIATED SKIN DISEASES AND SKIN AGEING AND DIAGNOSIS OF OXIDATIVE STRESS-ASSOCIATED SKIN DISEASES” (priority 2019, published 2022).

One test deals with HaCat cells. The experiment in a line: MTT viability assay, paraquat oxidative stress, keratinocytes. It counts as cell-based, human. The method, then: Human keratinocytes (HaCat cells; disclosed in Boukamp et al. 1988 J Cell Biol 106:761-71 and available from Deutsches Krebsforschungszentrum, DKFZ, info@cell-lines-service.de; and also commercially available for example from Addexbio, San Diego, Calif., catalogue number T0020001) were grown in SFM medium supplemented with L-glutamine, EGF (epidermal growth factor) and bovine pituitary extract (Gibson, Invitrogen) until 90% confluency in 96-well plates (Nunc A/S, Roskilde, Denmark). Human monocytes (THP-1 cells; disclosed in Tsuchiya et al. 1980 Int J Cancer 26:171-6; commercially available for example from Sigma-Aldrich, catalogue number 88081201; kindly provided by Dr Arne Egesten, Lund University) were cultured in RPMI 1640 medium supplemented with Glutamax-1 (Gibco®, ThermoFisher Scientific), 100 μg/ml streptomycin, 100 μg/ml penicillin, and 10% v/v foetal calf serum (ThermoFisher Scientific). All cells were grown at 37° C. in 5% CO2 and 95% humidity.
HaCat cells cultured to 90% confluency, or THP-1 cells (1.2×10^6 cells/well) in a 96-well plate were treated with 2 mM paraquat (Sigma-Aldrich) and/or 5 μM RoxP for 24-48 h. […] Viability was measured by the addition of 0.5 mg/ml 3-(4,5-demethylthiazol-2-yl)-2,5-diphenyltetrazolium bromide (MTT) for 1-5 hours. […] The samples incubated for 30 minutes and absorbance at 550 nm was measured using a Wallac 1420 Multilabel Counter ([…]). […]
A general note: Formazan colour is commonly taken as a measure of viable cells.

The nature of another test: Phenantroline assay. It counts as biochemical. The conditions noted are these: 10 μg or 20 μg RoxP. On the procedure: Phenantroline chelates specifically Fe^2+ and generates absorbance at 550 nm.
A reaction mixture containing 0.7 mM ammonium iron (II) sulfate hexahydrate (from 1.4 mM working solution in PBS) or 0.5 mM ammonium iron (III) sulfate dodecahydrate (from 1.0 mM working solution in PBS); and further containing 10 μg or 20 μg RoxP (from 2 mg/ml RoxP working solution in PBS) or equivalent volume of PBS as control; and further containing 0.75 mM phenatroline (from 5 mM working solution in PBS); total volume 200 μl; was incubated for 15 minutes at room temperature. Absorbance was read at 550 nm.

B1: RoxP: radical oxygenase of Propionibacterium acnes, secreted antioxidant protein of C. acnes; SEQ ID NO: 1 for strain KPA171202 (protein)
chain: MFVQIAASLAAASSIALGIPGAATPIDESQLPVGPQVSVTDSAQHTGPFAASSPLTITVKPGAPCVRADGYQESMVTRVLDDKGHQVWTGTFDESKLIGGTGLGTATFHVGSPAAAFNFHGSERTTYRTLSYCAYPHYVNGTRERLSQVSVKTFMVDPALN
modifications: Cutibacterium acnes
Turning to B1, the “effect on negative oxidative effect of paraquat (cell viability)” value in the test on HaCat cells (2 mM paraquat, 5 μM RoxP (1:400 RoxP:oxidizer), 24 h, responded less well) is recorded as “completely inhibited”. In addition, the “overall viability in the absence of an added oxidizer” value in the test on HaCat cells (no paraquat) is recorded as “increase the overall viability”. Moreover, the “reduction of Fe^3+ to Fe^2+ (absorbance at 550 nm)” value in the test “Phenantroline assay” (0.5 mM ammonium iron (III) sulfate, 15 minutes) is listed as “reduced Fe^3+ to Fe^2+”. Also, the “effect on reaction when only Fe^2+ was present” value in “Phenantroline assay” (0.7 mM ammonium iron (II) sulfate) is listed as “did not affect”.
